T1: APBA2_2, Q99767
T1 sequence (Q99767 654-744, limits assumed, looked up): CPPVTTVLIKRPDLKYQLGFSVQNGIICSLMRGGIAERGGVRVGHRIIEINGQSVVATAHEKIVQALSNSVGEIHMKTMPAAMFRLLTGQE

T2: NHERF3_3, Q5T2W1
T2 sequence (Q5T2W1 238-333, limits assumed, looked up): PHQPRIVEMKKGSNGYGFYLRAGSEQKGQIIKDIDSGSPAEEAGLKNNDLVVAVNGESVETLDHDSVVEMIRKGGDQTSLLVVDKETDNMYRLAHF

T3: MPDZ_12, O75970
T3 sequence (O75970 1857-1958, limits assumed, looked up): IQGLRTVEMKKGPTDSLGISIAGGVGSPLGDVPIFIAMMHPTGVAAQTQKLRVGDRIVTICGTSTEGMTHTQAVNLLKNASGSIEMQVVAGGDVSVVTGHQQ

T4: TIAM2, Q8IVF5
T4 sequence (Q8IVF5 885-986, limits assumed, looked up): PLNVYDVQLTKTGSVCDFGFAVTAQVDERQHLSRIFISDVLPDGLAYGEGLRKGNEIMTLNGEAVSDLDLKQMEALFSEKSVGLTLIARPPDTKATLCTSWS

T5: APBA2_1, Q99767
T5 sequence (Q99767 563-664, limits assumed, looked up): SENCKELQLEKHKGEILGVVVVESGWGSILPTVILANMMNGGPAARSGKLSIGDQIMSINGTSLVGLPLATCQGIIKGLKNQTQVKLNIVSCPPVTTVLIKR

T6: FRMPD1, Q5SYB0
T6 sequence (Q5SYB0 52-145, limits assumed, looked up): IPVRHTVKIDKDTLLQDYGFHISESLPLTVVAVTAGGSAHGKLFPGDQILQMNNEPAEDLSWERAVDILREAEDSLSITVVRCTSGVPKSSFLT

T7: GRIP1_7, Q9Y3R0
T7 sequence (Q9Y3R0 999-1096, limits assumed, looked up): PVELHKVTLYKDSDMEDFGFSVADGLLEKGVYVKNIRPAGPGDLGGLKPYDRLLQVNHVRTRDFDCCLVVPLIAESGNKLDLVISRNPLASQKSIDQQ

T8: MPP7, Q5T2T1
T8 sequence (Q5T2T1 134-230, limits assumed, looked up): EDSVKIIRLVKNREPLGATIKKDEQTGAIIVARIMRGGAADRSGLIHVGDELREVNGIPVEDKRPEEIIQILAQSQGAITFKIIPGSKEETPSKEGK

T9: LNX2_2, Q8N448
T9 sequence (Q8N448 334-432, limits assumed, looked up): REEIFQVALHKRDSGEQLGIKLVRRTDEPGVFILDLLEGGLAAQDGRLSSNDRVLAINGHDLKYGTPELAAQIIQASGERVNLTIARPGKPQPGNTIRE

T10: DVL3, Q92997
T10 sequence (Q92997 244-331, limits assumed, looked up): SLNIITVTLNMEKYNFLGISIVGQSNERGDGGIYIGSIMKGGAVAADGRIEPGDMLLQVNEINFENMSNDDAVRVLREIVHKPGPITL

T11: MPP2, Q14168
T11 sequence (Q14168 180-250, limits assumed, looked up): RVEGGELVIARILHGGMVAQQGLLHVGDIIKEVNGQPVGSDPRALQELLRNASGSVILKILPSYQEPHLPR

T12: HTRA4, P83105
T12 sequence (P83105 378-476, limits assumed, looked up): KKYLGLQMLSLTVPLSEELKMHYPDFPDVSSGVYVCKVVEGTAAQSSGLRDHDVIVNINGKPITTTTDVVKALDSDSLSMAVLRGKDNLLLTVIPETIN

T13: SNTG1, Q9NSN8
T13 sequence (Q9NSN8 52-150, limits assumed, looked up): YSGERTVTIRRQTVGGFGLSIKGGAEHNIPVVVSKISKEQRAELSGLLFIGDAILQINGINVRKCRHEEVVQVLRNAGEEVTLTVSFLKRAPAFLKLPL

T14: PDZD7_3, Q9H5P4
T14 sequence (Q9H5P4 857-944, limits assumed, looked up): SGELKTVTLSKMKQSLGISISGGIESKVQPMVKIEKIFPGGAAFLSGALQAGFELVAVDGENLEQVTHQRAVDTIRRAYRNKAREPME

T15: CARD11, Q9BXL7
T15 sequence (Q9BXL7 662-765, limits assumed, looked up): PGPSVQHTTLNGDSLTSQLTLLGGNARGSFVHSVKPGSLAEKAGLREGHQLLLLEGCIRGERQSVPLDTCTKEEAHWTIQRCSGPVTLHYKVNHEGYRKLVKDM


Tests used:
Assay in all cases: holdup assay
Design in all cases: key: below the threshold = too weak to quantify, mostly under pKd 3.1 to 4
Conditions in all cases: plain residues with an end cap or a label only (N-terminal biotin on a linker: ado-ado)
[1] = molecular target: SCRIB_1, Q14160
[2] = molecular target: T1, APBA2_2, Q99767
[3] = molecular target: T2, NHERF3_3, Q5T2W1
[4] = molecular target: ARHGEF12, Q9NZN5-2
[5] = molecular target: T3, MPDZ_12, O75970
[6] = molecular target: T4, TIAM2, Q8IVF5
[7] = molecular target: T5, APBA2_1, Q99767
[8] = molecular target: MAST2, Q6P0Q8
[9] = molecular target: T6, FRMPD1, Q5SYB0
[10] = molecular target: T7, GRIP1_7, Q9Y3R0
[11] = molecular target: T8, MPP7, Q5T2T1
[12] = molecular target: T9, LNX2_2, Q8N448
[13] = molecular target: T10, DVL3, Q92997
[14] = molecular target: GRIP2_3, Q9C0E4
[15] = molecular target: AHNAK1, Q09666
[16] = molecular target: Inadl_3, Q8NI35
[17] = molecular target: T11, MPP2, Q14168
[18] = molecular target: T12, HTRA4, P83105
[19] = molecular target: T13, SNTG1, Q9NSN8
[20] = molecular target: TJP1_2, Q07157
[21] = molecular target: T14, PDZD7_3, Q9H5P4
[22] = molecular target: LIMK2, P53671
[23] = molecular target: T15, CARD11, Q9BXL7

Chain of GRIP2_3, Q9C0E4 (Q9C0E4 238-339): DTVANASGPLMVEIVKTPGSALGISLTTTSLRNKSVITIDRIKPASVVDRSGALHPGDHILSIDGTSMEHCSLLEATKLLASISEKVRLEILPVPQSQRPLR
Chain of MAST2, Q6P0Q8 (Q6P0Q8 1099-1202): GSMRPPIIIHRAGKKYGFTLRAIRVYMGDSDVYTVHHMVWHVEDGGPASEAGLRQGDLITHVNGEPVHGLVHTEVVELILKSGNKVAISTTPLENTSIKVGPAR
Chain of TJP1_2, Q07157 (Q07157 181-274): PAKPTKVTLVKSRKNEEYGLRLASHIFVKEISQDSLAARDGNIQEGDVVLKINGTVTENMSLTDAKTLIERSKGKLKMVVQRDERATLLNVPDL
Chain of SCRIB_1, Q14160 (Q14160 718-814): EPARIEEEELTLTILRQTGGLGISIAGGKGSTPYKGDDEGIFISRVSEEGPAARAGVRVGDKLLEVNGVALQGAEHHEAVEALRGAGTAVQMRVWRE
Chain of LIMK2, P53671 (P53671 143-248): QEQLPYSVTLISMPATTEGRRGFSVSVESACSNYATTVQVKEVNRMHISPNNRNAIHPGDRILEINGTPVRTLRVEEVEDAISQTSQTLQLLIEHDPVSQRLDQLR
Chain of AHNAK1, Q09666 (Q09666 4-100): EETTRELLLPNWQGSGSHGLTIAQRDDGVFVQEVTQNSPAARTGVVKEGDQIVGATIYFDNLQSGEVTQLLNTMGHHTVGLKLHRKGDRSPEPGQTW
Chain of ARHGEF12, Q9NZN5-2 (Q9NZN5 other isoform, or with tags, fused parts or gaps): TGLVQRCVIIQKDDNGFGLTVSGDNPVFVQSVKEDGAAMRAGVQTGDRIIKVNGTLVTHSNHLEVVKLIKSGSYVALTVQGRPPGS
Chain of Inadl_3, Q8NI35 (Q8NI35 359-469): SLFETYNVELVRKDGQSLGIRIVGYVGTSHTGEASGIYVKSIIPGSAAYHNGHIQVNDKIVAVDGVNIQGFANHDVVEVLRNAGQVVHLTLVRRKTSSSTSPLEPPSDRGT

Binder | pKd [1] | pKd [2] | pKd [3] | pKd [4] | pKd [5] | pKd [6] | pKd [7] | pKd [8] | pKd [9] | pKd [10] | pKd [11] | pKd [12] | pKd [13] | pKd [14] | pKd [15] | pKd [16] | pKd [17] | pKd [18] | pKd [19] | pKd [20] | other results
RGKNRRQSIF [CDK18, Q07002] | below the threshold | 3.5 | below the threshold | below the threshold | 3.58 | below the threshold | below the threshold | 4.34 | below the threshold | below the threshold | below the threshold | 3.58 | below the threshold | below the threshold | below the threshold | below the threshold | 3.54 | below the threshold | below the threshold | below the threshold | pKd [21]: below the threshold; pKd [22]: below the threshold; pKd [23]: below the threshold
TNSKQGETTV [FZD1, Q9UP38] | 4.07 | below the threshold | below the threshold | below the threshold | below the threshold | below the threshold | below the threshold | 4.88 | below the threshold | below the threshold | below the threshold | 4.71 | 3.61 | below the threshold | below the threshold | below the threshold | below the threshold | 3.79 | 4.31 | 3.48 | pKd [21]: 4.53; pKd [22]: below the threshold; pKd [23]: below the threshold
THHRKIHTRV [ZNF599, Q96NL3] | 3.98 | 3.49 | below the threshold | 4.3 | below the threshold | 3.57 | below the threshold | 5.03 | below the threshold | below the threshold | below the threshold | 3.82 | below the threshold | below the threshold | below the threshold | below the threshold | below the threshold | below the threshold | 3.61 | 3.62 | pKd [21]: 4.53; pKd [22]: below the threshold; pKd [23]: below the threshold
AKADAQESRL [PLCB2, Q00722] | 4.2 | below the threshold | 3.85 | 3.93 | below the threshold | below the threshold | below the threshold | 5.82 | below the threshold | below the threshold | below the threshold | below the threshold | below the threshold | below the threshold | below the threshold | below the threshold | below the threshold | 3.85 | below the threshold | below the threshold | pKd [21]: 4.29; pKd [22]: below the threshold; pKd [23]: below the threshold
VISSDDLTEL [CAPN6, Q9Y6Q1] | 3.6 | below the threshold | below the threshold | 4.91 | below the threshold | 3.96 | below the threshold | 5.67 | below the threshold | below the threshold | below the threshold | below the threshold | below the threshold | below the threshold | below the threshold | below the threshold | below the threshold | 3.92 | below the threshold | below the threshold | pKd [21]: 3.87; pKd [22]: below the threshold; pKd [23]: below the threshold
TFSRRPKTRV [CD226, Q15762] | below the threshold | below the threshold | 3.63 | 3.93 | below the threshold | below the threshold | 3.55 | 4.1 | below the threshold | below the threshold | below the threshold | below the threshold | below the threshold | below the threshold | below the threshold | below the threshold | below the threshold | 4.01 | below the threshold | 3.5 | pKd [21]: 4.5; pKd [22]: below the threshold; pKd [23]: below the threshold
